# Test results published in paper PMC6363796, “Identification and characterization of a direct activator of a gene transfer agent”.
# T1: GafA (Rhodobacter capsulatus, UniProt D5AUH1 1-382)
# T1 sequence: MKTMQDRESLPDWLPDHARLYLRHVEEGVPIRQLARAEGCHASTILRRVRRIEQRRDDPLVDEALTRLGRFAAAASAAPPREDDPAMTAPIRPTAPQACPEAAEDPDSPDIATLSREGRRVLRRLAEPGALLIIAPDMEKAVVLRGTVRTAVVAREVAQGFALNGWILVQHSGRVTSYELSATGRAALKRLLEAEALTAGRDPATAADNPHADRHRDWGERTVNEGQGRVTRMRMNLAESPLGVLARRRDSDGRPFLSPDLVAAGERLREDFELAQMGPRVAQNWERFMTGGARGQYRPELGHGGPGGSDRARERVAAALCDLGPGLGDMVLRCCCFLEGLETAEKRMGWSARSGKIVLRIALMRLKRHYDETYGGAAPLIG
# T2: GtaR (Rhodobacter capsulatus, UniProt D5AM23 1-203)
# T2 sequence: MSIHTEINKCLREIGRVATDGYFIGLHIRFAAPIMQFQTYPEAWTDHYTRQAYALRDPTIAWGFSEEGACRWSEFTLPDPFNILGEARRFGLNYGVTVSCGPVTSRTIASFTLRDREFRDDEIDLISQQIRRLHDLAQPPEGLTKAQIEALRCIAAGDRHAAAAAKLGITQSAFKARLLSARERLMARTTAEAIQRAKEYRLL
# T3: CtrA (Rhodobacter capsulatus, UniProt D5ATW9 1-237)
# T3 sequence: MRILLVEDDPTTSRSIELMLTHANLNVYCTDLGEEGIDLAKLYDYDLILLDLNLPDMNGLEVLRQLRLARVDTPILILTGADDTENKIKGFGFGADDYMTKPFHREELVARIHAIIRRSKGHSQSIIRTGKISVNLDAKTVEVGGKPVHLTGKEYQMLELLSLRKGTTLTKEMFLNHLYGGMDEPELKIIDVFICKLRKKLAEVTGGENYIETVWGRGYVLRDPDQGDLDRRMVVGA
# Assays:
# GafA = molecular target: T1, GafA; assay: EMSA; 2 uM GafA; 80 nM Cy5-dsDNA, 25 mM HEPES pH 8.0, 50 mM K-glutamate, 50 mM MgSO4, 1 mM DTT, 0.1 mM EDTA, 0.05% Triton X-100, 1 ug poly dI:dC, 4% glycerol, 30 C 15 min; GtaR: 10 mM HEPES pH 8, 40 mM NaCl, 37 C 30 min; PCR products: pGTA 2 ng/ul, unlabelled 100 ng; settings: protein: recombinant; tags: His6 (pCMF176) or His6-MBP (pCMF193); label: 5'-Cy5 (one strand); blunt
# GtaR = molecular target: T2, GtaR; assay: EMSA; binding detected at 375 nM protein or above; GtaR buffer; 80 nM Cy5-dsDNA, 25 mM HEPES pH 8.0, 50 mM K-glutamate, 50 mM MgSO4, 1 mM DTT, 0.1 mM EDTA, 0.05% Triton X-100, 1 ug poly dI:dC, 4% glycerol, 30 C 15 min; GtaR: 10 mM HEPES pH 8, 40 mM NaCl, 37 C 30 min; PCR products: pGTA 2 ng/ul, unlabelled 100 ng; settings: protein: recombinant; tags: His6 (pEHisTEV, N-terminal); chain copies: 2; label: 5'-Cy5 (one strand); blunt
# CtrA = molecular target: T3, CtrA; assay: EMSA; 80 nM Cy5-dsDNA, 25 mM HEPES pH 8.0, 50 mM K-glutamate, 50 mM MgSO4, 1 mM DTT, 0.1 mM EDTA, 0.05% Triton X-100, 1 ug poly dI:dC, 4% glycerol, 30 C 15 min; GtaR: 10 mM HEPES pH 8, 40 mM NaCl, 37 C 30 min; PCR products: pGTA 2 ng/ul, unlabelled 100 ng; settings: protein: recombinant; tags: His6 (pEHisTEV, N-terminal); chain copies: 2; label: 5'-Cy5 (one strand); blunt
Binder,binding result (GafA),binding result (GtaR),Kd (CtrA)
pGTA5 (dsDNA) DNA 1: GGCATGCTAGGAGAGGTGGGCAAGCGCCGCGGGTGACCGTGTGCGCTTTT DNA 2: AAAAGCGCACACGGTCACCCGCGGCGCTTGCCCACCTCTCCTAGCATGCC,no binding,–,–
pGTA3 (dsDNA) DNA 1: GCGCCGCGGGTGACCGTGTGCGCTTTTTTCATTTCGCTCGTGCGGACAGG DNA 2: CCTGTCCGCACGAGCGAAATGAAAAAAGCGCACACGGTCACCCGCGGCGC,no binding,–,–
pGTA4 (dsDNA) DNA 1: TTCATTTCGCTCGTGCGGACAGGCATGAGAGGCGGGTCACGCAAGACATG DNA 2: CATGTCTTGCGTGACCCGCCTCTCATGCCTGTCCGCACGAGCGAAATGAA,no binding,–,–
pGafA_50 (gafA promoter) (dsDNA) DNA 1: TCGAGATCGCCCCATTTCTTAACCAAGGGGTAACCAAAGCAACCCACGGT DNA 2: ACCGTGGGTTGCTTTGGTTACCCCTTGGTTAAGAAATGGGGCGATCTCGA,–,binds,54.9 nM
pGTA1 (dsDNA) DNA 1: TCCGGGGTTTTTTCTTTTCAGCGGGTGCAACCCTGAATATAGCACTTGAC DNA 2: GTCAAGTGCTATATTCAGGGTTGCACCCGCTGAAAAGAAAAAACCCCGGA,no binding,–,–
